Test results as given in publication PMC11957791.

Biological target: SBW25 RimK (P. fluorescens SBW25) (UniProt C3KE61)
Sequence of UniProt C3KE61 (C3KE61 whole entry): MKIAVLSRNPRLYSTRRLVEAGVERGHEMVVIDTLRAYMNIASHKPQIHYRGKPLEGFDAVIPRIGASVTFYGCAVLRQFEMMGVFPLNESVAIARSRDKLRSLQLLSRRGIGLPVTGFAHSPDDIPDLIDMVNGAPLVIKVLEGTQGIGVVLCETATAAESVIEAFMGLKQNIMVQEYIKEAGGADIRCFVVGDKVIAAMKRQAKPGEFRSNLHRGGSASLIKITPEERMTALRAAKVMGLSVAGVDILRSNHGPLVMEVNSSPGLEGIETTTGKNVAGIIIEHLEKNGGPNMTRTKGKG

ATPase specific activity of SBW25 RimK (3.8 μM) with RimB (6.0 μM), linked PK/LDH assay; RimK only 47 nmol/min/mg RimK: 196 nmol/min/mg
Substance: SBW25 RimB (enzyme)
